{"source": "patent EP1644415B1", "about": "(Genetics Institute, LLC, dated 2010)", "binders": {"B1": {"name": "human IL-22R extracellular domain-Fc fusion homodimer (Fc fusion)", "chain": "HAPEDPSDLLQHVKFQSSNFENILTWDSGPEGTPDTVYSIEYKTYGERDWVAKKGCQRITRKSCNLTVETGNLTELYYARVTAVSAGGRSATKMTDRFSSLQHTTLKPPDVTCISKVRSIQMIVHPTPTPIRAGDGHRLTLEDIFHDLFYHLELQVNRTYQMHLGGKQREYEFFGLTPDTEFLGTIMICVPTWAKESAPYMCRVKTLPDRTWTAGSGSGSG", "notes": "extracellular domain; Used as CHO conditioned medium, not purified; also called IL-22R-Fc; IL-22RECD-Fc; not shown: human IgG1 Fc"}, "B2": {"name": "human IL-22 binding protein-Fc fusion (Fc fusion)", "chain": "TQSTHESLKPQRVQFQSRNFHNILQWQPGRALTGNSSVYFVQYKIYGQRQWKNKEDCWGTQELSCDLTSETSDIQEPYYGRVRAASAGSYSEWSMTPRFTPWWETKIDPPVMNITQVNGSLLVILHAPNLPYRYQKEKNVSIEDYYELLYRVFIINNSLEKEQKVYEGAHRAVEIEALTPHSSYCVVAEIYQPMLDRRSQRSEERCVEIPAGSGSGSG", "notes": "Fc fusion homodimer, used as CHO conditioned medium; also called IL-22BP-Fc; hIL-22BP-Fc; not shown: human IgG1 Fc"}, "B3": {"name": "human IL-22 with N terminal His/Flag tag (ligand)", "chain": "GSGHHHHHHGSGDYKDDDDKAPISSHCRLDKSNFQQPYITNRTFMLAKEASLADNNTDVRLIGEKLFHGVSMSERCYLMKQVLNFTLEEVLFPQSDRFQPYMQEVVPFLARLSNRLSTCHIEGDDLHIQRNVQKLKDTVKKLGESGEIKAIGELDLLFMSLRNACI", "modifications": "biotinylated with EZ-Link Sulfo-NHS-Biotin where used in ELISA (bio-IL-22); not biotinylated in Biacore and cell assays", "notes": "Made in CHO cells, extensively glycosylated; also called hIL-22; huIL-22"}}, "key": {"[1]": {"biological_target": "B1", "assay": "ELISA, IL-10R2-Fc added to captured IL-22R-Fc before bio-IL-22 (Figure 9A)"}, "[2]": {"biological_target": "B3", "assay": "ELISA, bio-IL-22 on streptavidin plates, IL-22R-Fc titrated (Figure 6B)"}, "[3]": {"biological_target": "B3", "assay": "competition ELISA: IL-22BP-Fc pre-incubated with bio-IL-22 30 ng/ml, binding to captured IL-22R-Fc (Figure 11A)"}, "[4]": {"biological_target": "B3", "assay": "competition ELISA: IL-22BP-Fc pre-incubated with bio-IL-22 5 ng/ml, binding to captured IL-22R/IL-10R2-Fc heterodimer (Figure 11B)"}, "[5]": {"biological_target": "B1", "assay": "ELISA, IL-22R-Fc captured on anti-human IgG, bio-IL-22 titrated (Figure 6A)"}, "[6]": {"biological_target": "T1, human IL-22R-Fc/IL-10R2-Fc heterodimer (human, UniProt Q8N6P7 16-228; Q08334 20-220)", "T1 construct": "extracellular domain; Used as conditioned medium of CHO cells co-expressing both fusions; also called IL-22R/IL-10R2-Fc heterodimer; IL-22R-Fc/IL-10R2-Fc complex; not shown: human IgG1 Fc", "T1 sequence 1": "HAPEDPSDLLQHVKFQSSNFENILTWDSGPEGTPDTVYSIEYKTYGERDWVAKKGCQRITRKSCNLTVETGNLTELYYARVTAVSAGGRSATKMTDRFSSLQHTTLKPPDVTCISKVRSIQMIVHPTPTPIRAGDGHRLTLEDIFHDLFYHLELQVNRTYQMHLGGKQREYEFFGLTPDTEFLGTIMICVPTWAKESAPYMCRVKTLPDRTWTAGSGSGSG", "T1 sequence 2": "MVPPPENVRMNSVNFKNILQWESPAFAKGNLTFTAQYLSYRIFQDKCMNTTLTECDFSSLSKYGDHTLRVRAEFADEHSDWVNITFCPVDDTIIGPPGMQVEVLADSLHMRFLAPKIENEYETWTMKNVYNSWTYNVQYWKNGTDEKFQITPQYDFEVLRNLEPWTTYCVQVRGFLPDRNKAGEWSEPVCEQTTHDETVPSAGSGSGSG", "assay": "ELISA, 50 ng/ml total Fc captured on anti-human IgG, bio-IL-22 titrated (Figure 8A)"}, "[7]": {"biological_target": "T1, human IL-22R-Fc/IL-10R2-Fc heterodimer", "assay": "ELISA, 50 ng/ml total Fc of co-expressing CHO CM captured, bio-IL-22 5 ng/ml, no antibody (Figure 10C)"}, "[8]": {"biological_target": "B2", "assay": "Biacore, IL-22BP-Fc from conditioned medium captured by anti-human IgG, IL-22 injected, 1:1 model"}, "[9]": {"biological_target": "T1, human IL-22R-Fc/IL-10R2-Fc heterodimer", "assay": "Biacore, receptor-Fc from conditioned medium captured by anti-human IgG, IL-22 injected, 1:1 model"}, "[10]": {"biological_target": "B1", "assay": "Biacore, receptor-Fc from conditioned medium captured by anti-human IgG, IL-22 injected, 1:1 model"}}, "data": [{"binder": "human IL-10R2 extracellular domain-Fc fusion homodimer (Fc fusion, extracellular domain; Used as CHO conditioned medium, not purified; also called IL-10R2-Fc; IL-10R2ECD-Fc; not shown: human IgG1 Fc) MVPPPENVRMNSVNFKNILQWESPAFAKGNLTFTAQYLSYRIFQDKCMNTTLTECDFSSLSKYGDHTLRVRAEFADEHSDWVNITFCPVDDTIIGPPGMQVEVLADSLHMRFLAPKIENEYETWTMKNVYNSWTYNVQYWKNGTDEKFQITPQYDFEVLRNLEPWTTYCVQVRGFLPDRNKAGEWSEPVCEQTTHDETVPSAGSGSGSG", "values": [{"measurement": "binding result", "setting": "[1]", "value": "no binding"}]}, {"binder": "B1", "values": [{"measurement": "EC50", "setting": "[2]", "value": 0.006, "unit": "µg/mL"}]}, {"binder": "B2", "values": [{"measurement": "IC50", "setting": "[3]", "value": 4, "unit": "nM"}, {"measurement": "IC50", "setting": "[4]", "value": 2, "unit": "nM"}]}, {"binder": "B3", "values": [{"measurement": "EC50", "setting": "[5]", "value": 0.02, "unit": "µg/mL"}, {"measurement": "fold less bio-IL-22 needed for a comparable signal than with immobilized IL-22R-Fc homodimer", "setting": "[6]", "value": 8, "unit": "fold"}, {"measurement": "ELISA signal (absorbance at 450 nm)", "setting": "[7]", "value": 2.5}, {"measurement": "Kd", "setting": "[8]", "value": 3.37, "unit": "nM"}, {"measurement": "Kd", "setting": "[9]", "value": 1.48, "unit": "nM"}, {"measurement": "Kd", "setting": "[10]", "value": 41, "unit": "nM"}]}]}
